Results on 7 substances are retold here after PMC9182292.

The target in the test is human 6His-14-3-3ζ (human) (UniProt P63104). Description: pull-down; 6His-14-3-3ζ (0.1 mg) immobilised on Ni-NTA resin, 300 μL lysate of HEK293 cells expressing SNAP-TM reporters overnight at 4°C, 1% Triton X-100 in PBS with 25 mM imidazole; blot for the SNAP-tag, amount pulled down normalised to CT_(598-910), CT_(731-910) or untreated control; in some samples cells were treated before lysis with staurosporine (three hours) or more specific kinase inhibitors.
UniProt P63104, sequence (P63104 whole entry): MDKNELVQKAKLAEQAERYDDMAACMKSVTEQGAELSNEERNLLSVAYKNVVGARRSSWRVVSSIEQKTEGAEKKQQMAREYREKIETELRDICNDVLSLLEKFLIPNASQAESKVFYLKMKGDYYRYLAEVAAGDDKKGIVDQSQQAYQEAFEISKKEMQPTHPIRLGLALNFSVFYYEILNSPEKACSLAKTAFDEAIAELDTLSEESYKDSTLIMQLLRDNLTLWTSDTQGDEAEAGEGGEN

Consider “SNAP-TM-HCN1CT reporter with loss of residues 803-910 (from UniProt O88704 598-802) (domain or fragment)”, for which the fold of reporter pulled down compared to CT (598-910) was determined as 0.2 fold.

Take “SNAP-TM-HCN1CT reporter serially truncated to also lack the region containing peptide B (residues 790-820) (from UniProt O88704 598-790) (domain or fragment)”: the fold of reporter pulled down compared to CT (598-910) was 0.23 fold.

In the case of “SNAP-TM-HCN1CT reporter CT_(731-910; S810A; S867A) (from UniProt O88704 731-910) (domain or fragment)”, the fold of reporter pulled down compared to CT (731-910) is 0.33 fold.

“SNAP-TM-HCN1CT reporter CT_(731-910) (from UniProt O88704 731-910) (domain or fragment)”: the fold of reporter pulled down compared to CT (598-910) stood at 1.39 fold, the fold of reporter pulled down from cells treated with the PKC inhibitor bisindolylmaleimide I compared to untreated control worked out at 0.61 fold, the fold of reporter pulled down from cells treated with the p38MAPK inhibitor PD 169316 compared to untreated control turned out to be 0.61 fold and the fold of reporter pulled down from staurosporine-treated cells compared to untreated control is 0.26 fold.

Consider “SNAP-TM-HCN1CT reporter lacking the distal 30 amino acid block with the TRIP8b-tripeptide binding site (from UniProt O88704 598-880) (domain or fragment)”, for which the fold of reporter pulled down compared to CT (598-910) turned out to be 1.18 fold.

Turning to “SNAP-TM-HCN1CT reporter CT_(731-910; Δ804–814; Δ861–871) (from UniProt O88704 731-910) (domain or fragment)”, the fold of reporter pulled down compared to CT (731-910) turned out to be 0.26 fold.

Consider “SNAP-TM-HCN1CT reporter serially truncated to lack the region containing peptide C (amino acids 850-880) (from UniProt O88704 598-850) (domain or fragment)”, for which the fold of reporter pulled down compared to CT (598-910) turned out to be 0.61 fold.
